Measured values from PMC7913776 (Nucleic Acids Research, 2021).

Molecular target: T1, GST-tagged full-length BACH1 protein (mouse, UniProt P97302 1-739)
T1 sequence: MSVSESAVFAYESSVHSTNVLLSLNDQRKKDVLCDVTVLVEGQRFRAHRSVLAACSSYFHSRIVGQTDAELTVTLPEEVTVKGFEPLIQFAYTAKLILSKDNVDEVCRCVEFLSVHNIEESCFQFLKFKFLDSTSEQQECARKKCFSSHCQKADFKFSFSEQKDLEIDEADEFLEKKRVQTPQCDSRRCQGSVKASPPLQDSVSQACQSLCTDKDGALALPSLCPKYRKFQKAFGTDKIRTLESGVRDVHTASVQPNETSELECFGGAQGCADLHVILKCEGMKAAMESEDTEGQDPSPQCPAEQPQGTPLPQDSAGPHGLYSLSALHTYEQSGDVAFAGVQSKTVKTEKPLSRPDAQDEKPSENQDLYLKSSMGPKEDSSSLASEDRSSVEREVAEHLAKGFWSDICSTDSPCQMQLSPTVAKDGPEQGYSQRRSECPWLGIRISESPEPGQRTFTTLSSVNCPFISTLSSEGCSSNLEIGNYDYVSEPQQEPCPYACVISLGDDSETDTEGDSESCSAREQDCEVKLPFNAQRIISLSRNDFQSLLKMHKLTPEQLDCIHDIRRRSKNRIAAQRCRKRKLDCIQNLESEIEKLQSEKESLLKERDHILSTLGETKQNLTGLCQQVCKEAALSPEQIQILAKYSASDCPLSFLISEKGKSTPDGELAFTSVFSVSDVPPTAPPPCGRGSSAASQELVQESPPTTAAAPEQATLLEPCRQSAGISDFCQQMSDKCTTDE
Assay: pull-down

binding result: binds
B1: HIS-tagged NANOG (natural protein)
chain: MSVGLPGPHSLPSSEEASNSGNASSMPAVFHPENYSCLQGSATEMLCTEAASPRPSSEDLPLQGSPDSSTSPKQKLSSPEADKGPEEEENKVLARKQKMRTVFSQAQLCALKDRFQKQKYLSLQQMQELSSILNLSYKQVKTWFQNQRMKCKRWQKNQWLKTSNGLIQKGSAPVEYPSIHCSYPQGYLVNASGSLSMWGSQTWTNPTWSSQTWTNPTWNNQTWTNPTWSSQAWTAQSWNGQPWNAAPLHNFGEDFLQPYVQLQQNFSASDLEVNLEATRESHAHFSTPQALELFLNYSVTPPGEI
